The text below walks through data of article PMC6804253, “Predicting and Experimentally Validating Hot-Spot Residues at Protein–Protein Interfaces” (ACS Chemical Biology, 2019).

The test system of assay [1] is PPIs of the SKEMPI data set (by PDBID). Nature of the assay: SKEMPI experimental ΔΔG, single mutations to alanine. It counts as binding. The following applies: for sk_class: class of the SKEMPI experimental ΔΔG; for sk_class (class of the SKEMPI experimental ΔΔG): class by ΔΔG threshold 4.184 kJ/mol, ref SKEMPI.
Assay [2] has the same test system. The following applies: single mutation to alanine, ref SKEMPI, cited from earlier work; for sk_ddG_kJ (SKEMPI experimental ΔΔG): complex given by PDBID, mutation by mut_pdb; for sk_ddG_kJ (SKEMPI experimental ΔΔG, mutation to alanine): PPI given by PDBID, sheet sortedByGroup, r_group DERKH.

B1: 1DAN PU92A (protein, UniProt P13726 33-251, looked up, variant P92A)
extracellular domain: SGTTNTVAAYNLTWKSTNFKTILEWEPKPVNQVYTVQISTKSGDWKSKCFYTTDTECDLTDEIVKDVKQTYLARVFSYPAGNVESTGSAGEALYENSPEFTPYLETNLGQPTIQSFEQVGTKVNVTVEDERTLVRRNNTFLSLRDVFGKDLIYTLYYWKSSSSGKKTAKTNTNEFLIDVDKGENYCFSVQAVIPSRTVNRKSTDSPVECMGQEKGEFRE
modifications: extracellular domain
As to B1, the sk_class entry in assay [1] was “Neutral (neutral (little effect) 4.184 kJ/mol < ΔΔG > −4.184 kJ/mol)”. Moreover, the “sk_ddG_kJ (SKEMPI experimental ΔΔG)” value in assay [2] is on record as -0.79 kJ.

B2: 1EMV GA49A (protein, UniProt P13479 1-86, looked up, variant G49A)
Colicin-E9 immunity protein: MELKHSISDYTEAEFLQLVTTICNADTSSEEELVKLVTHFEEMTEHPSASDLIYYPKEGDDDSPSGIVNTVKQWRAANGKSGFKQG
With B2, in assay [1], the sk_class result was “Positive (positive (a hot residue) ΔΔG ≥ 4.184 kJ/mol)”. Moreover, the “sk_ddG_kJ (SKEMPI experimental ΔΔG)” value in assay [2] is recorded as 6.23 kJ.

B3: 1EMV PA56A (protein, UniProt P13479 1-86, looked up, variant P56A)
Colicin-E9 immunity protein: MELKHSISDYTEAEFLQLVTTICNADTSSEEELVKLVTHFEEMTEHPSGSDLIYYAKEGDDDSPSGIVNTVKQWRAANGKSGFKQG
For the molecule B3, the sk_class entry in assay [1] is given as “Positive (positive (a hot residue) ΔΔG ≥ 4.184 kJ/mol)”. For the same molecule, the “sk_ddG_kJ (SKEMPI experimental ΔΔG)” value in assay [2] is recorded as 5.19 kJ.

B4: 1JRH GI50A (protein, UniProt P15260 18-245, looked up, variant G50A)
extracellular domain: EMGTADLGPSSVPTPTNVTIESYNMNPIVYWEYQIMPQVPVFTVEVKNYAVKNSEWIDACINISHHYCNISDHVGDPSNSLWVRVKARVGQKESAYAKSEEFAVCRDGKIGPPKLDIRKEEKQIMIDIFHPSVFVNGDEQEVDYDPETTCYIRVYNVYVRMNGSEIQYKILTQKEDDCDEIQCQLAIPVSSLNSQYCVSAEGVLHVWGVTTEKSKEVCITIFNSSIKG
modifications: extracellular domain
As for B4, in assay [1], the sk_class result is reported as “Positive (positive (a hot residue) ΔΔG ≥ 4.184 kJ/mol)”. Also, in assay [2], the “sk_ddG_kJ (SKEMPI experimental ΔΔG)” value was 18.33 kJ.

B5: 1A4Y EA287A (protein, UniProt P13489 2-461, looked up, variant E287A)
Ribonuclease inhibitor: SLDIQSLDIQCEELSDARWAELLPLLQQCQVVRLDDCGLTEARCKDISSALRVNPALAELNLRSNELGDVGVHCVLQGLQTPSCKIQKLSLQNCCLTGAGCGVLSSTLRTLPTLQELHLSDNLLGDAGLQLLCEGLLDPQCRLEKLQLEYCSLSAASCEPLASVLRAKPDFKELTVSNNDINEAGVRVLCQGLKDSPCQLEALKLESCGVTSDNCRDLCGIVASKASLRELALGSNKLGDVGMAELCPGLLHPSSRLRTLWIWECGITAKGCGDLCRVLRAKESLKALSLAGNELGDEGARLLCETLLEPGCQLESLWVKSCSFTAACCSHFSSVLAQNRFLLELQISNNRLEDAGVRELCQGLGQPGSVLRVLWLADCDVSDSSCSSLAATLLANHSLRELDLSNNCLGDAGILQLVESVRQPGCLLEQLVLYDIYWSEEMEDRLQALEKDKPSLRVIS
Take B5: the “sk_class (class of the SKEMPI experimental ΔΔG)” value in assay [1] is reported as “Neutral (neutral (little effect) 4.184 kJ/mol < ΔΔG > −4.184 kJ/mol)”. Further, the “sk_ddG_kJ (SKEMPI experimental ΔΔG, mutation to alanine)” value in assay [2] is recorded as 0.38 kJ.

B6: 1A4Y KA320A (protein, UniProt P13489 2-461, looked up, variant K320A)
Ribonuclease inhibitor: SLDIQSLDIQCEELSDARWAELLPLLQQCQVVRLDDCGLTEARCKDISSALRVNPALAELNLRSNELGDVGVHCVLQGLQTPSCKIQKLSLQNCCLTGAGCGVLSSTLRTLPTLQELHLSDNLLGDAGLQLLCEGLLDPQCRLEKLQLEYCSLSAASCEPLASVLRAKPDFKELTVSNNDINEAGVRVLCQGLKDSPCQLEALKLESCGVTSDNCRDLCGIVASKASLRELALGSNKLGDVGMAELCPGLLHPSSRLRTLWIWECGITAKGCGDLCRVLRAKESLKELSLAGNELGDEGARLLCETLLEPGCQLESLWVASCSFTAACCSHFSSVLAQNRFLLELQISNNRLEDAGVRELCQGLGQPGSVLRVLWLADCDVSDSSCSSLAATLLANHSLRELDLSNNCLGDAGILQLVESVRQPGCLLEQLVLYDIYWSEEMEDRLQALEKDKPSLRVIS
For B6, the “sk_class (class of the SKEMPI experimental ΔΔG)” value in assay [1] is given as “Neutral (neutral (little effect) 4.184 kJ/mol < ΔΔG > −4.184 kJ/mol)”. Moreover, in assay [2], the “sk_ddG_kJ (SKEMPI experimental ΔΔG, mutation to alanine)” value is given as -1.30 kJ.
